Assay results as given in publication doi:10.1101/2023.03.09.531510.
Blank lines part the entries; values can stand above or below the substance they belong to.

Columns and labels:
Experiment in all cases: protein-fragment complementation
[1] = target: Lsb3 (UniProt P43603)
[2] = target: Ysc84 (UniProt P32793)
[3] = target: Sbp1 (UniProt P10080)
[4] = target: Chc1 (UniProt P22137)
[5] = target: Pab1 (UniProt P04147)
[6] = target: Cdc3 (UniProt P32457)
[7] = target: Bzz1 (UniProt P38822)
[8] = target: Srv2 (UniProt P17555)
[9] = target: Pan1 (UniProt P32521)
[10] = target: Ssz1 (UniProt P38788)
[11] = target: Cdc10 (UniProt P25342)
[12] = target: Arc15 (UniProt P40518)
[13] = target: Pfk1 (UniProt P16861)
[14] = target: Myo5 (UniProt Q04439)
[15] = target: Las17 (UniProt Q12446)
[16] = target: Vrp1 (UniProt P37370)
[17] = target: Arc19 (UniProt P33204)
[18] = target: Arc18 (UniProt Q05933)
[19] = target: Ygl242c (UniProt P53066)
[20] = target: Ste20 (UniProt Q03497)
[21] = target: Aim21 (UniProt P40563)
[22] = target: Rvs167 (UniProt P39743)
[23] = target: Ssb1 (UniProt P11484)
[24] = target: Bbc1 (UniProt P47068)
[25] = target: Sla1 (UniProt P32790)
[26] = target: Yor1 (UniProt P53049)
[27] = target: Sac6 (UniProt P32599)
[28] = target: Arc40 (UniProt P38328)
[29] = target: Cmd1 (UniProt P06787)
[30] = target: Sfk1 (UniProt P35735)
[31] = target: Ssb2 (UniProt P40150)
[32] = target: Pkh2
[33] = target: Smi1 (UniProt P32566)
[34] = target: Sla2 (UniProt P33338)
[35] = target: Tdh3 (UniProt P00359)
[36] = target: Syp1 (UniProt P25623)
[37] = target: Nap1 (UniProt P25293)
[38] = target: Hsp104 (UniProt P31539)
[39] = target: Osh2 (UniProt Q12451)
[40] = target: Bmh1 (UniProt P29311)
[41] = target: Mid2 (UniProt P36027)
[42] = target: Tif4631 (UniProt P39935)
[43] = target: Hek2 (UniProt P38199)
[44] = target: Ssa1 (UniProt P10591)

Chain of UniProt P36027 (P36027 whole entry): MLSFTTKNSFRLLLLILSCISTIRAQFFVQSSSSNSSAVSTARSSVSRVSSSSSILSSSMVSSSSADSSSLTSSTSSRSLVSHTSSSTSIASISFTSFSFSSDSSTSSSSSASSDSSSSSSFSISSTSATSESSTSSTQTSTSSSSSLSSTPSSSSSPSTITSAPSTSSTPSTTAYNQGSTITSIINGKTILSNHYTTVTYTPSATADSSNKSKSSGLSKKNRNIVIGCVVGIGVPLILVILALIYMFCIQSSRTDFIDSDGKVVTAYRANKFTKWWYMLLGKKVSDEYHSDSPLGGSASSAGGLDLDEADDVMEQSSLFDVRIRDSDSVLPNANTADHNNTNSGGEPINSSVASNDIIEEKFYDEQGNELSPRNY
Chain of UniProt P38822 (P38822 whole entry): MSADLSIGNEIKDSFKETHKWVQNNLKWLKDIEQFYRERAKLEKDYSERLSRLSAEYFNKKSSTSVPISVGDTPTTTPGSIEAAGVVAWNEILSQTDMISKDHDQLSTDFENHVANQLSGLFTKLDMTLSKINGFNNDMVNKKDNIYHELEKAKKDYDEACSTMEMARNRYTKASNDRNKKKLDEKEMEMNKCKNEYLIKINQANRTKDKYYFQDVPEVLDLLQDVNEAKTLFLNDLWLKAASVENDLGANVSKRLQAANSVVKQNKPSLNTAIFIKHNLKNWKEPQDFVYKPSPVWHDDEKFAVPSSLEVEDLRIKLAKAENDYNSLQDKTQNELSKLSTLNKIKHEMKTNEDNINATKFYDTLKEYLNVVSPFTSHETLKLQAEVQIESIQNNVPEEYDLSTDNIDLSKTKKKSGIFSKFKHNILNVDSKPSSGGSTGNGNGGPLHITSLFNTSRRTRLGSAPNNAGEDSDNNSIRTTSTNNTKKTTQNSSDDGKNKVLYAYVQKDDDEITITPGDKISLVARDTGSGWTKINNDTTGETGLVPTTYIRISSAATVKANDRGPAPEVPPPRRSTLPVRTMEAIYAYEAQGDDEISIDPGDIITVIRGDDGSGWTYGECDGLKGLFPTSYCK
Chain of UniProt P39743 (P39743 whole entry): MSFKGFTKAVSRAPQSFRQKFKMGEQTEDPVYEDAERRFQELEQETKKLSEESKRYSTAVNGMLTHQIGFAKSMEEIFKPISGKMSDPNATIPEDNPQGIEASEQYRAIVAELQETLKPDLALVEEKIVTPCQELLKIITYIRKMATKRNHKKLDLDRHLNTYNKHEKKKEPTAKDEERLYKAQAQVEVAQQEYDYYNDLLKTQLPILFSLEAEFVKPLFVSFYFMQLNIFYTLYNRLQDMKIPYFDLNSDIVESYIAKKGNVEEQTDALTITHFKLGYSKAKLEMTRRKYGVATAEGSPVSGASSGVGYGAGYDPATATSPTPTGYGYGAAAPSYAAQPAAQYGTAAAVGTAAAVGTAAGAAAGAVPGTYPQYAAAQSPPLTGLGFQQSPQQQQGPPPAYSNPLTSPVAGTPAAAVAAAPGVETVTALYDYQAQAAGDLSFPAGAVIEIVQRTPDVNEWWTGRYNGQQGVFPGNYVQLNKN
Chain of UniProt Q03497 (Q03497 whole entry): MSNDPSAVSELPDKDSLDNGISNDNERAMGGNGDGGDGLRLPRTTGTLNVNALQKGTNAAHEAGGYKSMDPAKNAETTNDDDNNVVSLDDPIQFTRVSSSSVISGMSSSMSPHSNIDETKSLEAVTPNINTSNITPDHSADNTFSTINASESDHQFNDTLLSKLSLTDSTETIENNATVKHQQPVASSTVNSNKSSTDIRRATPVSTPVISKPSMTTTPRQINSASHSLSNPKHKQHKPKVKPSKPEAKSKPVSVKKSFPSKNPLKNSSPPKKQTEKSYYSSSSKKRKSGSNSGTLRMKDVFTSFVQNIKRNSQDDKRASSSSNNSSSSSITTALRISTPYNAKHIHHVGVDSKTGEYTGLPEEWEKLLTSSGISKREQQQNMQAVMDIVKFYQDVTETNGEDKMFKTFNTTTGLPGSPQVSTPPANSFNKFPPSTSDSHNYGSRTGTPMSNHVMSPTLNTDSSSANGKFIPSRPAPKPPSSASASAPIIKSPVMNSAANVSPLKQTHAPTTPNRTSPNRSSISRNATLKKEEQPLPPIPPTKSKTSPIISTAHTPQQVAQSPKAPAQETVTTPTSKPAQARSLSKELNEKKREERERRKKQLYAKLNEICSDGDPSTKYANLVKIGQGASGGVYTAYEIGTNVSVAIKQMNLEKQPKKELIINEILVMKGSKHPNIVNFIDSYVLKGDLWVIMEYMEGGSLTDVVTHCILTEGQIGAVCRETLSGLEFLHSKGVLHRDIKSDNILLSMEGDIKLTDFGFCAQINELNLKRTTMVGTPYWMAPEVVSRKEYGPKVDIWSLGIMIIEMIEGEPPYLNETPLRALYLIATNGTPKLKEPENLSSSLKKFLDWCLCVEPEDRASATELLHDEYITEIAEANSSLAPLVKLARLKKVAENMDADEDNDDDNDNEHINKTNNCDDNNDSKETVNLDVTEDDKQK
Chain of UniProt P40150 (P40150 whole entry): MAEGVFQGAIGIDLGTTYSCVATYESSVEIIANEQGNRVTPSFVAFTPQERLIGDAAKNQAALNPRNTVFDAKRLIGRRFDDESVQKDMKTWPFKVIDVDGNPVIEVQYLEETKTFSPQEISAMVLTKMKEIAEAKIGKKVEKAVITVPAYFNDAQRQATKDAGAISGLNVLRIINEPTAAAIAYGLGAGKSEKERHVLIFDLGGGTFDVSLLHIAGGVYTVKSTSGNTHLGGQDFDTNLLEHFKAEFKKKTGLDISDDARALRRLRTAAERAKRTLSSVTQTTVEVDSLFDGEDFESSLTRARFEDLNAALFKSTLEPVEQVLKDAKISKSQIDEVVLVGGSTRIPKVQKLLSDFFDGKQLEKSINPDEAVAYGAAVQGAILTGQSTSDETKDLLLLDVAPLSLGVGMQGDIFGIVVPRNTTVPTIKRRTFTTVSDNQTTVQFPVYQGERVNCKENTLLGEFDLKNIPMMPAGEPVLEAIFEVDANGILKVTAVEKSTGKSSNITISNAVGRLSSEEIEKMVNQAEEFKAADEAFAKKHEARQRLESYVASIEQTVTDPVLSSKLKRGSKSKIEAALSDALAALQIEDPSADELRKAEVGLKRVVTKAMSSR
Chain of UniProt P17555 (P17555 whole entry): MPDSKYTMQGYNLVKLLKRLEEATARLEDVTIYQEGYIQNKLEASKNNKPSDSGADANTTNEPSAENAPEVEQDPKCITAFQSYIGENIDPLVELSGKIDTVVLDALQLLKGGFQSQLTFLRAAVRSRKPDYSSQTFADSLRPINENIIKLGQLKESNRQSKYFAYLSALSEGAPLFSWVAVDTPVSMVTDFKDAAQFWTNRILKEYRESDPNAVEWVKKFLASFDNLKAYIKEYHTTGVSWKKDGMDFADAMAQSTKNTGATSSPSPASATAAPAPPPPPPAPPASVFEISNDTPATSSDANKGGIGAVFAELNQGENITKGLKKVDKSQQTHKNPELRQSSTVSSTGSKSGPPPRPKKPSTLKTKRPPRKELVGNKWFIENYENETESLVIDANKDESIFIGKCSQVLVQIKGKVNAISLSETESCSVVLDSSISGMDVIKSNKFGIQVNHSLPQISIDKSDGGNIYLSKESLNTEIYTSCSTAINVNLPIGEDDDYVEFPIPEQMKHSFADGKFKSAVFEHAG
Chain of UniProt P39935 (P39935 whole entry): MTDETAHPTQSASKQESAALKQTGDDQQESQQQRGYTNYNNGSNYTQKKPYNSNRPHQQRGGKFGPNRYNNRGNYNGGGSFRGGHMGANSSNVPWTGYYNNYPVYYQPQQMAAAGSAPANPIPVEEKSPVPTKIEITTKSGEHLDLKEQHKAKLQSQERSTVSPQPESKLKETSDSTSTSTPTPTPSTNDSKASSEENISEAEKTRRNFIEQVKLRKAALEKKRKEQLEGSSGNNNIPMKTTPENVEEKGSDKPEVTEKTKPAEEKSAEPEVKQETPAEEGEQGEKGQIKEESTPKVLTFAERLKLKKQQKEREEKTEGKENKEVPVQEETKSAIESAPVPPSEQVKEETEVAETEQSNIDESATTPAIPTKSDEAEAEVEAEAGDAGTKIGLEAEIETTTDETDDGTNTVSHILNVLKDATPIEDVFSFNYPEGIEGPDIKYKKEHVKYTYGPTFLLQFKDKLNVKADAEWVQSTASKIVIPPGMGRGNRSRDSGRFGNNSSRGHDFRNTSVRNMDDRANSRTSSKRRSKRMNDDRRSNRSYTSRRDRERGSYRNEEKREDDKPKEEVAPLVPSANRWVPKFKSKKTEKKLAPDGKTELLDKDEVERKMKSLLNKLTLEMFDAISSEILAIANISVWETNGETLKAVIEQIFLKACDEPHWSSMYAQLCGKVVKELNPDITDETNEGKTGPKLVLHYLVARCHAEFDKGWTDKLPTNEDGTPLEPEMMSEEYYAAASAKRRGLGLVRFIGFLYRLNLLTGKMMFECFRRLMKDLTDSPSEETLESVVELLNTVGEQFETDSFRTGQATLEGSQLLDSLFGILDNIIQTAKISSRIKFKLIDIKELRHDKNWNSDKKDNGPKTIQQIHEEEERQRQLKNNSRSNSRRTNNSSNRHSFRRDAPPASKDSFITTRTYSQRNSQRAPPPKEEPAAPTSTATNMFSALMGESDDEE
Chain of UniProt P32566 (P32566 whole entry): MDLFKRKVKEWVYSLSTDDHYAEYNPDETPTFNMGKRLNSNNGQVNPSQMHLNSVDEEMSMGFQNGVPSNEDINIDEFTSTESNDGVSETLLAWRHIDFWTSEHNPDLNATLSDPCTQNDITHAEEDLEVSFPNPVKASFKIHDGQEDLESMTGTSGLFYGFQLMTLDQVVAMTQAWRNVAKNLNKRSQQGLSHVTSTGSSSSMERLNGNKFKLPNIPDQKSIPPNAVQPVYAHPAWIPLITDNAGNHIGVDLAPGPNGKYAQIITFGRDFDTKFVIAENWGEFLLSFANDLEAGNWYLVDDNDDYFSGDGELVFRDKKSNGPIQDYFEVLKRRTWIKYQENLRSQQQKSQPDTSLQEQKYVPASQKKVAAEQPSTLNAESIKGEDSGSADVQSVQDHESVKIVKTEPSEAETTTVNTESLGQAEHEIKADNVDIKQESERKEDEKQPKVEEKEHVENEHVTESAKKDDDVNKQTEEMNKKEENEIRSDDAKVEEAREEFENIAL

interaction score [1]: 0.637
interaction score [2]: 0.505
interaction score [3]: 0.832
interaction score [4]: 0.603
interaction score [5]: 0.797
interaction score [6]: 0.515
interaction score [7]: 0.818
interaction score [8]: 0.649
interaction score [9]: 0.926
interaction score [10]: 0.834
interaction score [11]: 0.416
interaction score [12]: 0.898
interaction score [13]: 0.867
interaction score [14]: 0.901
interaction score [15]: 0.875
interaction score [16]: 0.919
interaction score [17]: 0.771
interaction score [18]: 0.878
interaction score [19]: 0.942
interaction score [20]: 0.482
interaction score [21]: 0.755
interaction score [22]: 0.567
interaction score [23]: 0.941
interaction score [24]: 0.758
interaction score [25]: 0.568
interaction score [26]: 0.488
interaction score [27]: 0.823
interaction score [28]: 0.964
interaction score [29]: 0.497
interaction score [30]: 0.733
interaction score [31]: 0.932
interaction score [32]: 0.0795
interaction score [33]: 0.562
interaction score [34]: 0.646
interaction score [35]: 0.97
interaction score [36]: 0.564
interaction score [37]: 0.52
interaction score [38]: 0.767
interaction score [39]: 0.755
interaction score [40]: 0.823
interaction score [41]: 0.854
interaction score [42]: 0.672
interaction score [43]: 0.417
Substance: Myo5 with SH3 AncB (from UniProt Q04439)

interaction score [1]: 0.339
interaction score [2]: 0.281
interaction score [3]: 0.852
interaction score [4]: 0.599
interaction score [5]: 0.813
interaction score [6]: 0.288
interaction score [7]: 0.34
interaction score [8]: 0.398
interaction score [9]: 0.616
interaction score [10]: 0.853
interaction score [11]: 0.289
interaction score [12]: 0.877
interaction score [13]: 0.874
interaction score [14]: 0.763
interaction score [15]: 0.367
interaction score [16]: 0.606
interaction score [17]: 0.469
interaction score [18]: 0.775
interaction score [19]: 0.95
interaction score [20]: 0.28
interaction score [21]: 0.454
interaction score [22]: 0.0148
interaction score [23]: 0.94
interaction score [24]: 0.139
interaction score [25]: 0.27
interaction score [26]: 0.144
interaction score [27]: 0.766
interaction score [28]: 0.949
interaction score [29]: 0.27
interaction score [30]: 0.219
interaction score [31]: 0.946
interaction score [33]: 0.547
interaction score [34]: 0.341
interaction score [35]: 0.969
interaction score [36]: 0.199
interaction score [37]: 0.514
interaction score [38]: 0.771
interaction score [39]: 0.0609
interaction score [40]: 0.821
interaction score [41]: 0.79
interaction score [42]: 0.689
interaction score [43]: 0.342
Substance: Myo5 with SH3 SH3-depleted (from UniProt Q04439)

interaction score [1]: 0.624
interaction score [2]: 0.463
interaction score [3]: 0.827
interaction score [4]: 0.578
interaction score [5]: 0.785
interaction score [6]: 0.433
interaction score [7]: 0.823
interaction score [8]: 0.628
interaction score [9]: 0.926
interaction score [44]: 0.902
interaction score [10]: 0.83
interaction score [11]: 0.374
interaction score [12]: 0.901
interaction score [13]: 0.855
interaction score [14]: 0.898
interaction score [15]: 0.877
interaction score [16]: 0.912
interaction score [17]: 0.766
interaction score [18]: 0.87
interaction score [19]: 0.929
interaction score [20]: 0.421
interaction score [21]: 0.756
interaction score [22]: 0.5
interaction score [23]: 0.929
interaction score [24]: 0.758
interaction score [25]: 0.539
interaction score [26]: 0.432
interaction score [27]: 0.825
interaction score [28]: 0.952
interaction score [29]: 0.582
interaction score [30]: 0.716
interaction score [31]: 0.93
interaction score [32]: 0.102
interaction score [33]: 0.532
interaction score [34]: 0.644
interaction score [35]: 0.965
interaction score [36]: 0.527
interaction score [37]: 0.463
interaction score [38]: 0.76
interaction score [39]: 0.745
interaction score [40]: 0.82
interaction score [41]: 0.857
interaction score [42]: 0.662
interaction score [43]: 0.36
Substance: Myo5 with SH3 controlMyo5 (from UniProt Q04439)

interaction score [1]: 0.62
interaction score [2]: 0.463
interaction score [3]: 0.824
interaction score [4]: 0.568
interaction score [5]: 0.8
interaction score [6]: 0.422
interaction score [7]: 0.814
interaction score [8]: 0.632
interaction score [9]: 0.926
interaction score [44]: 0.914
interaction score [10]: 0.835
interaction score [11]: 0.366
interaction score [12]: 0.9
interaction score [13]: 0.869
interaction score [14]: 0.901
interaction score [15]: 0.876
interaction score [16]: 0.917
interaction score [17]: 0.768
interaction score [18]: 0.868
interaction score [19]: 0.938
interaction score [20]: 0.401
interaction score [21]: 0.762
interaction score [22]: 0.503
interaction score [23]: 0.942
interaction score [24]: 0.762
interaction score [25]: 0.523
interaction score [26]: 0.454
interaction score [27]: 0.823
interaction score [28]: 0.969
interaction score [29]: 0.26
interaction score [30]: 0.736
interaction score [31]: 0.932
interaction score [32]: 0.11
interaction score [33]: 0.518
interaction score [34]: 0.621
interaction score [35]: 0.97
interaction score [36]: 0.513
interaction score [37]: 0.48
interaction score [38]: 0.758
interaction score [39]: 0.756
interaction score [40]: 0.815
interaction score [41]: 0.864
interaction score [42]: 0.665
interaction score [43]: 0.321
Substance: Myo5 with SH3 extantMyo5 (from UniProt Q04439)

interaction score [1]: 0.643
interaction score [2]: 0.475
interaction score [3]: 0.835
interaction score [4]: 0.598
interaction score [5]: 0.795
interaction score [6]: 0.457
interaction score [7]: 0.835
interaction score [8]: 0.656
interaction score [9]: 0.936
interaction score [44]: 0.91
interaction score [11]: 0.379
interaction score [12]: 0.903
interaction score [14]: 0.907
interaction score [15]: 0.879
interaction score [16]: 0.92
interaction score [17]: 0.78
interaction score [18]: 0.88
interaction score [19]: 0.944
interaction score [20]: 0.425
interaction score [21]: 0.767
interaction score [22]: 0.53
interaction score [23]: 0.942
interaction score [24]: 0.767
interaction score [25]: 0.56
interaction score [26]: 0.481
interaction score [27]: 0.836
interaction score [28]: 0.97
interaction score [29]: 0.458
interaction score [30]: 0.746
interaction score [31]: 0.935
interaction score [32]: 0.095
interaction score [33]: 0.562
interaction score [34]: 0.664
interaction score [35]: 0.971
interaction score [36]: 0.543
interaction score [37]: 0.482
interaction score [38]: 0.774
interaction score [39]: 0.762
interaction score [40]: 0.833
interaction score [41]: 0.868
interaction score [42]: 0.689
interaction score [43]: 0.401
Substance: Myo5 with SH3 swap-optMyo3 (from UniProt Q04439)
